Data: IntAct's records for PubMed 10921873

How the values were obtained:
[1] = biological target: cope_yeast SEC28 (UniProt P40509)
[2] = biological target: copb_yeast SEC26 (UniProt P41810)
[3] = biological target: gcs1_yeast GCS1 (UniProt P35197)
[4] = biological target: glo3_yeast GLO3 (UniProt P38682)
[5] = biological target: cope_yeast SEC28 (UniProt P40509); remark: listed apart in the source
[6] = biological target: gcs1_yeast GCS1 (UniProt P35197); remark: listed apart in the source
[7] = biological target: glo3_yeast GLO3 (UniProt P38682); remark: listed apart in the source
[8] = biological target: copb_yeast SEC26 (UniProt P41810); remark: listed apart in the source

Measured: effect of a mutation on the interaction

Chain of ADP-ribosylation factor 1 (Homo sapiens), P84077 Q71L (P84077 whole entry Q71L): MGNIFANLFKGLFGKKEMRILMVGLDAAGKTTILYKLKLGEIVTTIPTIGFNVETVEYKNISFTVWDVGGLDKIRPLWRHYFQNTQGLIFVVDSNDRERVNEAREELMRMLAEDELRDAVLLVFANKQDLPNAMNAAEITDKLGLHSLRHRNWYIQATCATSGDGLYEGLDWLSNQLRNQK
Chain of glo3_yeast GLO3 (P38682 whole entry): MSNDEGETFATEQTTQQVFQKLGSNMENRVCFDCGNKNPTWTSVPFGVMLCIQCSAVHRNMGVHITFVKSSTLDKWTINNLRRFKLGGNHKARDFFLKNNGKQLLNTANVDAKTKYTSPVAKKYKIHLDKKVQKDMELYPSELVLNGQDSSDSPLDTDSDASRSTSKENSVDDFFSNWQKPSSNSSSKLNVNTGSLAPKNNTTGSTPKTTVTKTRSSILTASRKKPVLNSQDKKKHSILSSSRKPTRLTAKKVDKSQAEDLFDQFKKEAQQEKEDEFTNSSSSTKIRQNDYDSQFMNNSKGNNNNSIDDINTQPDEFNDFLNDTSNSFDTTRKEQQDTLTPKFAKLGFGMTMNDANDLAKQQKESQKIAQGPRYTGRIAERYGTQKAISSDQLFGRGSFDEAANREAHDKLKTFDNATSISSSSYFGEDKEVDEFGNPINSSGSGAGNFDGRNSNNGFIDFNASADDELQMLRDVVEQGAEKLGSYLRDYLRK
Chain of cope_yeast SEC28 (P40509 whole entry): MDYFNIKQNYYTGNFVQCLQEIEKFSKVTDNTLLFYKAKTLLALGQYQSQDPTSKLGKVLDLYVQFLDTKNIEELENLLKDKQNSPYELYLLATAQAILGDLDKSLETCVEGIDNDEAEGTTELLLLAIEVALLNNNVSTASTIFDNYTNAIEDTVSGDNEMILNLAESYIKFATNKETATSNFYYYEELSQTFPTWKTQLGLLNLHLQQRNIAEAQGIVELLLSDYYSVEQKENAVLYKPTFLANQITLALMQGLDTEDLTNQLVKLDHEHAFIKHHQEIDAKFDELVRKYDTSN
Chain of copb_yeast SEC26 (P41810 whole entry): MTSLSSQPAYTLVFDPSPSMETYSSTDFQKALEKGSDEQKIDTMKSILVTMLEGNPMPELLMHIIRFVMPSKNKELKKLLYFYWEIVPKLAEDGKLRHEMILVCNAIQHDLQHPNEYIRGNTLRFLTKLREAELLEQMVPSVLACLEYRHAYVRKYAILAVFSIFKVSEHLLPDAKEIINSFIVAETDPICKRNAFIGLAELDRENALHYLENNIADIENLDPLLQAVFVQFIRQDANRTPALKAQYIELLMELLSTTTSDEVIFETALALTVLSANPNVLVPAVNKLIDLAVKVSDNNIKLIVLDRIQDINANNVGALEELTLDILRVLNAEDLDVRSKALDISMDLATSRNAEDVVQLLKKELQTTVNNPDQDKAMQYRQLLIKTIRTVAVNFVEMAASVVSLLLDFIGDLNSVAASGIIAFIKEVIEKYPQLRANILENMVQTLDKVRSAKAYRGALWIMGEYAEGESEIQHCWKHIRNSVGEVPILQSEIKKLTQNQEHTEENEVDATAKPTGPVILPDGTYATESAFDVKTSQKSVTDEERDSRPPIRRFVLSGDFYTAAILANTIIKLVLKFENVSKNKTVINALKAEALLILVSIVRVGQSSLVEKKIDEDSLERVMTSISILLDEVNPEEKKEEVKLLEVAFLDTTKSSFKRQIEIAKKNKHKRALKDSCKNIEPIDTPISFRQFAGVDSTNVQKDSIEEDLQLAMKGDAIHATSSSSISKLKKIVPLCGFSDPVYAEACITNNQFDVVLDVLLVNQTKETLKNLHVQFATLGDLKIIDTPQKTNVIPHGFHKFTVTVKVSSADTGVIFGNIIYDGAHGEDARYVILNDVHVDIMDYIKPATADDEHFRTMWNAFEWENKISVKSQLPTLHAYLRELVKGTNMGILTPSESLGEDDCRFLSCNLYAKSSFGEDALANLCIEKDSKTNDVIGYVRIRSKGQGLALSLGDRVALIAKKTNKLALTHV
Chain of gcs1_yeast GCS1 (P35197 whole entry): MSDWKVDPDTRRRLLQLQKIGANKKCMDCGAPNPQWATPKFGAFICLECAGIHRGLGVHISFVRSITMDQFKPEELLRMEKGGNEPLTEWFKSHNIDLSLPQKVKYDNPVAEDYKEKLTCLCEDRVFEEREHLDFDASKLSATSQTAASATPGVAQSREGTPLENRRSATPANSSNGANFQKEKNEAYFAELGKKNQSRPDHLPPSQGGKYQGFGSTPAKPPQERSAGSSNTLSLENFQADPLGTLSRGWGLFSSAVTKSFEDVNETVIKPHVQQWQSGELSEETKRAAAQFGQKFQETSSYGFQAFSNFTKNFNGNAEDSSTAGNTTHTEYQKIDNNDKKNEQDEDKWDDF

ADP-ribosylation factor 1 (Homo sapiens), P84077 N126I
increasing interaction: [1] | [2] | [3] | [4]

ADP-ribosylation factor 1 (Homo sapiens), P84077 Q71L
increasing interaction: [5] | [6] | [7] | [8]
